The target of data set [1] is T1, prodystroglycan (DAG1_(28-340)) (Homo sapiens, UniProt Q14118 28-340, R311A | R312A).
T1 sequence: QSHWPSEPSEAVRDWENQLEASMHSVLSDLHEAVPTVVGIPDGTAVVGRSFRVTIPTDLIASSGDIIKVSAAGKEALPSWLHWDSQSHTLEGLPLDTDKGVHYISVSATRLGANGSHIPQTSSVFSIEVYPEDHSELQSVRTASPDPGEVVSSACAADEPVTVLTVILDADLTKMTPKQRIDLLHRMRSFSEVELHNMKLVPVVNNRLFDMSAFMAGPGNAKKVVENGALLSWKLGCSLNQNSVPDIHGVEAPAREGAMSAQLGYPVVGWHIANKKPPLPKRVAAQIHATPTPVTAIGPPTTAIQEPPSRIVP
As to the kind of experiment: MST.

Data set [2] deals with the molecule itself. As to the kind of experiment: SEC-MALS; Superdex 200 Increase 10/300 GL, 20 mM HEPES pH 7.4, 150 mM NaCl, samples 4-8 mg/mL, on line with SAXS.

The record followed here is article PMC12514197, “LARGE1 processively polymerizes length-controlled matriglycan on prodystroglycan” (Nature Communications, 2025).

B1: LARGE1dTM (enzyme)
chain: FEDGKPVSLSPLESQAHSPRYTASSQRERESLEVRMREVEEENRALRRQLSLAQGRAPSHRRGNHSKTYSMEEGTGDSENLRAGIVAGNSSECGQQPVVEKCETIHVAIVCAGYNASRDVVTLVKSVLFHRRNPLHFHLIADSIAEQILATLFQTWMVPAVRVDFYNADELKSEVSWIPNKHYSGIYGLMKLVLTKTLPANLERVIVLDTDITFATDIAELWAVFHKFKGQQVLGLVENQSDWYLGNLWKNHRPWPALGRGYNTGVILLLLDKLRKMKWEQMWRLTAERELMGMLSTSLADQDIFNAVIKQNPFLVYQLPCFWNVQLSDHTRSEQCYRDVSDLKVIHWNSPKKLRVKNKHVEFFRNLYLTFLEYDGNLLRRELFGCPSEADVNSENLQKQLSELDEDDLCYEFRRERFTVHRTHLYFLHYEYEPAADSTDVTLVAQLSMDRLQMLEAICKHWEGPISLALYLSDAEAQQFLRYAQGSEVLMSRHNVGYHIVYKEGQFYPVNLLRNVAMKHISTPYMFLSDIDFLPMYGLYEYLRKSVIQLDLANTKKAMIVPAFETLRYRLSFPKSKAELLSMLDMGTLFTFRYHVWTKGHAPTNFAKWRTATTPYRVEWEADFEPYVVVRRDCPEYDRRFVGFGWNKVAHIMELDVQEYEFIVLPNAYMIHMPHAPSFDITKFRSNKQYRICLKTLKEEFQQDMSRRYGFAALKYLTAENNS
modifications: N-glycans; NHS-red label in the microscale thermophoresis experiments
notes: LARGE1 lacking the transmembrane domain; soluble secreted construct; Homodimer by cryo-EM and SEC-MALS; also called Like-acetylglucosaminyltransferase-1; apo-LARGE1dTM; source: HEK293-F, stably transfected, secreted, purified (TALON resin)
Consider B1, for which the dissociation constant (Kd) in data set [1] was ~180 nM. Further, the “stoichiometry N” value in data set [2] is 2.

In general, Kd refers to a measure of binding affinity in units of concentration. A low value points to higher affinity. A word on the stoichiometry N: it is a count of units in the complex or per binding partner.
